Results taken from paper PMC6471432, “The 3′ Untranslated Region of a Plant Viral RNA Directs Efficient Cap-Independent Translation in Plant and Mammalian Systems”.

Legend:
human eIF4E [1] = molecular target: T1, human eIF4E (Homo sapiens, UniProt P06730 1-217); assay: EMSA; EMSA: 10 mM HEPES pH 7.5, 20 mM KCl, 1 mM DTT, 3 mM MgCl2, 1 ug/uL tRNA, 0.5 ug/uL BSA, 1 U/uL RNaseOUT, 5% glycerol, 10 uL, 25 min on ice, gel at 4 C; SHAPE: benzoyl cyanide, 22 C; conditions: protein: recombinant; label: 32P; pseudoknot between C and G domains
T1 sequence (P06730 whole entry): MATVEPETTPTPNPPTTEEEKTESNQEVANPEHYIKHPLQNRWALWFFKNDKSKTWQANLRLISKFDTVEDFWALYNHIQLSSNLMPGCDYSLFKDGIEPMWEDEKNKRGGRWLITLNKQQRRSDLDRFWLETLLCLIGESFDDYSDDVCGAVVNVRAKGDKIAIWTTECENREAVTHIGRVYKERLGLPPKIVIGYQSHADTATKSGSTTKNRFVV

human eIF4E [2] = molecular target: T1, human eIF4E; assay: EMSA; text: not shifted by 2 uM; EMSA: 10 mM HEPES pH 7.5, 20 mM KCl, 1 mM DTT, 3 mM MgCl2, 1 ug/uL tRNA, 0.5 ug/uL BSA, 1 U/uL RNaseOUT, 5% glycerol, 10 uL, 25 min on ice, gel at 4 C; SHAPE: benzoyl cyanide, 22 C; conditions: protein: recombinant; label: 32P; pseudoknot between C and G domains; three bands without protein

Binder | Kd (human eIF4E [1]) | Kd (human eIF4E [2])
PEMV2 PTE capped (structured_RNA, 5' cap) RNA: GUAGUGGUAGAACACGUGGGAUAGGGGAUGACCUUGUCGACCGGUUAUCGGUCCCCUGCUCCUUCGAGCUGGCAAGGCGCUCACAGGUUCUACACUGCUACUA | 285 ± 33 nM | 
PEMV2 PTE uncapped (structured_RNA) RNA: GUAGUGGUAGAACACGUGGGAUAGGGGAUGACCUUGUCGACCGGUUAUCGGUCCCCUGCUCCUUCGAGCUGGCAAGGCGCUCACAGGUUCUACACUGCUACUA |  | 2520 ± 435 nM
TPAV PTE capped (structured_RNA, 5' cap) RNA: GGACAAGACCCCAGGCGGGACGCCACACCCAUGUUUGCAGACAUGGCCCGAGGAAACUCUGGUGUGGGCUGGGGGGAAUCC | 160 ± 1 nM | 
TPAV PTE uncapped (structured_RNA) RNA: GGACAAGACCCCAGGCGGGACGCCACACCCAUGUUUGCAGACAUGGCCCGAGGAAACUCUGGUGUGGGCUGGGGGGAAUCC | 838 ± 124 nM | 
